Common to all, as to format: biochemical
Series [1] in a line: Oxidase activity testing against sclareol. Conditions: substrate Sclareol; Batch 2; UPLC-MS UV or MS peak areas. As to the method:
(§1) Lyophilised material of recombinant P450, ferredoxin and ferredoxin reductase proteins was made as described in Example 4 and reconstituted in high purity water to the original volume. Biocatalysis was performed with shaking incubation at 27° C. in the following conditions: 100 mM potassium phosphate pH 8.0, 5 mM MgCl2 (both present in the reconstituted enzyme preparation) and 0.1 mg/ml substrate compound such as ambroxide (Sigma-Aldrich, UK), carbamazepine (Sigma-Aldrich, UK), diclofenac (Sigma-Aldrich, UK), tivantinib (MedChemtronica, Sweden), clarithromycin (Tokyo Chemical Industry, Japan), sclareol (Sigma-Aldrich, UK), celecoxib (LC Laboratories, USA), buparvaquone (Sigma-Aldrich, UK), BIRB796 (MedChemExpress, USA), vanoxerine (CiVentiChem, USA), valsartan (Tokyo Chemical Industry, Japan), ruxolitinib (LC Laboratories, USA), perindopril (Selleckchem, USA), solifenacin (Key Organics, UK), 7-ethoxycoumarin (Tokyo Chemical Industry, Japan), tofacitinib (LC Laboratories, USA), ebastine (Key Organics, UK), efavirenz (Key Organics, UK), propanalol (Sigma-Aldrich, UK) and tolbutamide (Key Organics, UK).
(§2) Concentrations of P450, ferredoxin and ferredoxin reductase were as extracted (Example 4). Reactions were initiated by addition of 10× stock of cofactor mixture (50 mM G6P, 10 mM NADP+, 10 UN/ml G6PDH) to provide a final volume of e.g., 10 μl to 90 μl for 100 μl total reaction volumes. After 16-20 hours, reactions were extracted with an equal volume of acetonitrile, centrifuged to remove precipitated proteins and conversion assessed by UPLC-MS analysis.
(§3) UPLC Data were Obtained as Follows: • Column: Acquity UPLC BEH Shield RP18 1.7 μm 2.1 mm i.d. 50 mm length • Solvents: H2O, B: Acetonitrile, both with 0.1% Formic acid • Flow rate: 1.0 ml/min • Detector: Waters Acquity UPLC PDA (UV-Vis detection) and Waters Acquity UPLC QDA (MS)
(§4) Representative results for the % conversions of various substrates to products by enzymes with mutations at position T109 or L198 and double mutants at T109 and 1129/L198 are shown in Table 4 below.

Series [2] can be described thus: Oxidase activity testing against celecoxib. As to conditions: substrate Celecoxib; Batch 2. The method, then: as §1, §2, §3, §4
A short description of series [3]: Oxidase activity testing against buparvaquone. As to the method:
as §1, §2, §3, §4

The nature of series [4]: Oxidase activity testing against BIRB796. As to conditions: substrate BIRB796; Batch 2. As to the method: as §1, §2, §3, §4
A short description of series [5]: Oxidase activity testing against vanoxerine. Conditions: substrate Vanoxerine; Batch 2. The method, then: as §1, §2, §3, §4
Series [6] in a line: Oxidase activity testing against valsartan. Conditions: substrate Valsartan; Batch 2. The method, then: as §1, §2, §3, §4
Series [7] is described as follows: Oxidase activity testing against ruxolitinib. Conditions: substrate Ruxolitinib; Batch 2. The method, then: as §1, §2, §3, §4
A short description of series [8]: Oxidase activity testing against perindopril. As to conditions: substrate Perindopril; Batch 2. As to the method:
as §1, §2, §3, §4

Series [9] is described as follows: Oxidase activity testing against solifenacin. As to the method: as §1, §2, §3, §4
Series [10] in a line: Oxidase activity testing against 7-ethoxycoumarin. The method, then: as §1, §2, §3, §4
Series [11] can be described thus: Oxidase activity testing against tofacitinib. As to conditions: substrate Tofacitinib; Batch 2. The method, then:
as §1, §2, §3, §4

The nature of series [12]: Oxidase activity testing against ebastine. As to the method:
as §1, §2, §3, §4

Series [13] is described as follows: Oxidase activity testing against efavirenz. Conditions: substrate Efavirenz; Batch 2. As to the method:
as §1, §2, §3, §4

Series [14] can be described thus: Oxidase activity testing against tolbutamide. As to the method:
as §1, §2, §3, §4

Series [15] can be described thus: Oxidase activity testing, lyophilised recombinant P450/ferredoxin SeuF08/ferredoxin reductase SCF15A against ambroxide. As to conditions: for +16 Da (1.50 min) 253 m/z / +16 Da (1.60 min) 253 m/z / +16 Da (2.04 min) 253 m/z: oxidised ambroxide product; for +16 Da (1.50 min) 253 m/z / +16 Da (1.60 min) 253 m/z / +16 Da (2.04 min) 253 m/z / Ambroxide (2.22 min) 237 m/z: relative MS peak area; for Ambroxide (2.22 min) 237 m/z: remaining substrate, 0.1 mg/ml ambroxide, 27° C., 16-20 hours; for Average % conversion: substrate ambroxide, relative MS peak areas. The method, then:
as §1, §2, §3
(§5) To confirm the identities of reaction products where known, their chromatographic retention time, mass and ultraviolet spectra were compared with those of authentic metabolite standards.
Representative results for the % conversions of ambroxide to oxidised (+16 Da) products for single point mutants at position T109 are shown in Table 2 below.

A short description of series [16]: Oxidase activity testing against carbamazepine. Conditions: for +16 Da (1.18 min) 253 m/z: 2-hydroxycarbamazepine; for +16 Da (1.18 min) 253 m/z / +16 Da (1.14 min) 253 m/z / Parent (1.31 min) 237 m/z: relative MS peak area; for +16 Da (1.14 min) 253 m/z: carbamazepine epoxide; for Parent (1.31 min) 237 m/z: remaining carbamazepine, 0.1 mg/ml, 27° C., 16-20 hours; for Average % conversion: substrate carbamazepine, relative MS peak areas. As to the method:
as §1, §2, §3, §5
Representative results for the % conversions of carbamazepine to oxidised (+16 Da) products for single point mutants at position L198 are shown in Table 3 below.

Positions count from the first letter of the chain named. In names and notes the source's numbering stands.

B1: M53: P450SeuC10 with T109P mutation, SEQ ID NO: 124 (protein)
chain: MKIGTTHLTRLRGLSMTELTDITGPAAQAETVAFPQDRTCPYHPPTGYDPLRDGRPLSRVTLYDGREVWLVTAQATARALLADPRLSTDRRRDGFPVPTPRFAAGRDRPLALLGLDDPEHHRQRRLLIPSFTLKRATAQRPWIQRIVDELLDAMIARGPVADLVSAFALPVPSMVICELLGVPYADHEFFEEQSRRLLRGPTGADTTDARDRLEAYLGDLIDAKAKEAEPGDGILDDLVHNRLRAGELDRSVLVSLAVILLVAGHETTANMISLGTYTLLQHPERLAELRADPSLLPAVVEELLRMLSIAEGLQRLALEDIEIDGITIRAGEGVLFSTSVINRDTAVYEDPDDLDFHRADRHHVAFGFGIHQCLGQNLARAELEIALGSLFTRLPGLRLAAPAEEIPFKPGDTVQGMLELPVTW
modifications: SeuC10M53
Turning to B1, the Average % conversion in [1] stood at 52.7%; in [2] it was 39.1%; in [3] (substrate Buparvaquone, Batch 2) it was 54.7%; in series [4], 36.3%; in [5], 44.5%; in series [6], 14.3%. Also, the Average % conversion turned out to be 98.6% in [7]; 46.5% in series [8]; 33.6% in series [9] (substrate Solifenacin, Batch 2); 67.2% in series [10] (substrate 7-ethoxycoumarin, Batch 2); 67.5% in series [11]; 17.4% in [12] (substrate Ebastine, Batch 2). Besides, the Average % conversion in series [13] is listed as 1.8%; in [14] (substrate Tolbutamide, Batch 2), 77.6%. For the same molecule, the “conversion of buparvaquone compared to wild-type (in words)” value in series [3] was “significantly increased conversion”. For the same molecule, the “product at 1.97 minutes from buparvaquone (hydroxylation of a t-butyl methyl group)” value in series [3] (FIG. 8) is “increased production”. Moreover, in series [9], the “conversion of solifenacin compared to wild-type (in words)” value is given as “significantly increased conversion”. Besides, the “conversion of 7-ethoxycoumarin compared to wild-type (in words)” value in series [10] was “significantly increased conversion”. For the same molecule, the “product at 1.38 minutes from ebastine” value in series [12] (FIG. 9) is listed as “increased production”. Further, in series [14], the “conversion of tolbutamide compared to wild-type (in words)” value is “significantly increased conversion”.

B2: SeuC10M1: P450SeuC10 with T109R mutation, SEQ ID NO: 6 (protein)
chain: B1 chain with P109R
modifications: SeuC10M1
Consider B2, for which, in series [15], the “+16 Da (1.50 min) 253 m/z” value is 40.7%, the “+16 Da (1.60 min) 253 m/z” value came to 0.0%, the “+16 Da (2.04 min) 253 m/z” value turned out to be 0.0% and the “Ambroxide (2.22 min) 237 m/z” value came out at 59.3%. For the same molecule, the Average % conversion in [15] turned out to be 40.7%.

B3: SeuC10M19: P450SeuC10 with L198Y mutation, SEQ ID NO: 42 (protein)
chain: B1 chain with P109T, L198Y
modifications: SeuC10M19
For B3, in [16], the “+16 Da (1.18 min) 253 m/z” value is recorded as 0.0%, the “+16 Da (1.14 min) 253 m/z” value is listed as 3.9%, the “Parent (1.31 min) 237 m/z” value came to 96.1% and the Average % conversion was determined as 3.8%.

B4: SeuC10M17: P450SeuC10 with L198D mutation, SEQ ID NO: 38 (protein)
chain: B1 chain with P109T, L198D
modifications: SeuC10M17
Turning to B4, in [16], the “+16 Da (1.18 min) 253 m/z” value turned out to be 0.0%, the “+16 Da (1.14 min) 253 m/z” value came to 3.2%, the “Parent (1.31 min) 237 m/z” value came out at 96.8% and the Average % conversion is 3.2%.

B5: SeuC10M12: P450SeuC10 with L198M mutation, SEQ ID NO: 28 (protein)
chain: B1 chain with P109T, L198M
modifications: SeuC10M12
On to B5, for which, in series [16], the “+16 Da (1.18 min) 253 m/z” value amounted to 0.0%, the “+16 Da (1.14 min) 253 m/z” value amounted to 40.5%, the “Parent (1.31 min) 237 m/z” value is given as 59.5% and the Average % conversion turned out to be 40.5%.

B6: SeuC10M16: P450SeuC10 with L198N mutation, SEQ ID NO: 36 (protein)
chain: B1 chain with P109T, L198N
modifications: SeuC10M16
As to B6, in [16], the “+16 Da (1.18 min) 253 m/z” value came out at 0.0%, the “+16 Da (1.14 min) 253 m/z” value turned out to be 1.9%, the “Parent (1.31 min) 237 m/z” value came to 98.1% and the Average % conversion came to 1.9%.

B7: SeuC10M14: P450SeuC10 with L198V mutation, SEQ ID NO: 32 (protein)
chain: B1 chain with P109T, L198V
modifications: SeuC10M14
For the molecule B7, in series [16], the “+16 Da (1.18 min) 253 m/z” value is given as 0.0%, the “+16 Da (1.14 min) 253 m/z” value came to 43.7%, the “Parent (1.31 min) 237 m/z” value was 56.3% and the Average % conversion is reported as 43.7%.

B8: SeuC10M8: P450SeuC10 with L198I mutation, SEQ ID NO: 20 (protein)
chain: B1 chain with P109T, L198I
modifications: SeuC10M8
B8: in series [16], the “+16 Da (1.18 min) 253 m/z” value was found to be 0.0%, the “+16 Da (1.14 min) 253 m/z” value was 35.3%, the “Parent (1.31 min) 237 m/z” value stood at 64.7% and the Average % conversion is 35.3%.

B9: SeuC10M26: P450SeuC10 with T109I mutation, SEQ ID NO: 56 (protein)
chain: B1 chain with P109I
modifications: SeuC10M26
On to B9, for which, in series [15], the “+16 Da (1.50 min) 253 m/z” value turned out to be 58.3%, the “+16 Da (1.60 min) 253 m/z” value was found to be 0.0%, the “+16 Da (2.04 min) 253 m/z” value stood at 0.0% and the “Ambroxide (2.22 min) 237 m/z” value came to 41.7%. For the same molecule, in [15], the Average % conversion stood at 58.3%.

B10: SeuC10M18: P450SeuC10 with L198H mutation, SEQ ID NO: 40 (protein)
chain: B1 chain with P109T, L198H
modifications: SeuC10M18
For B10, in series [16], the “+16 Da (1.18 min) 253 m/z” value is 0.0%, the “+16 Da (1.14 min) 253 m/z” value is on record as 14.6%, the “Parent (1.31 min) 237 m/z” value came to 85.4% and the Average % conversion is 14.6%.

B11: SeuC10M27: P450SeuC10 with T109V mutation, SEQ ID NO: 58 (protein)
chain: B1 chain with P109V
modifications: SeuC10M27
As for B11, in series [15], the “+16 Da (1.50 min) 253 m/z” value is 58.6%, the “+16 Da (1.60 min) 253 m/z” value is 0.9%, the “+16 Da (2.04 min) 253 m/z” value is on record as 2.3% and the “Ambroxide (2.22 min) 237 m/z” value turned out to be 38.2%. The Average % conversion in series [15] is 61.7%.

The values above are taken from patent US20240263208A1, “CYTOCHROME P450 ENZYME” (HYPHA DISCOVERY LTD., priority 2021, published 2024).
